Two molecules from patent US20120316071A1 (published 2012) can be followed below.

The target in assay [1] is T1, rHuman Erythropoietin R/Fc Chimera, CF (R&D Systems Cat#963-ER) (human, UniProt P19235 25-250).
T1 construct: Bought recombinant protein; also called EPO R; EPO R/Fc; Fc part of the bought chimera not given
T1 sequence (looked up): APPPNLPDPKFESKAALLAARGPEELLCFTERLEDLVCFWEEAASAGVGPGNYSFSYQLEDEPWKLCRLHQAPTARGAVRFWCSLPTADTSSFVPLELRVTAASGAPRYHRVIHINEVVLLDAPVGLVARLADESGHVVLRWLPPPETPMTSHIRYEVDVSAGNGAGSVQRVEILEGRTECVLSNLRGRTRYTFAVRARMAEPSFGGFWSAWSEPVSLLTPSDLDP
As to the kind of experiment: ECL multispot (MSD), antigen spotted on plate, Fab at 5.00 (column head: Fab [µM]).

For assay [2], the target named is T2, rHuman EGF R/Fc Chimera, CF (R&D Systems Cat#344-ER) (human, UniProt P00533 25-645).
T2 construct: Bought recombinant protein; Fc part of the bought chimera not given
Nature of the assay: ECL multispot (MSD), antigen spotted on plate, Fab at 50.00 (column head: Fab [µM]).

Assay [3] deals with T3, rHuman Notch-1/Fc Chimera, CF (R&D Systems Cat#3647-TK) (human, UniProt P46531 19-526).
T3 construct: Bought recombinant chimera; Fc part of the bought chimera not given
The description is as above.

The target in assay [4] is T1, rHuman Erythropoietin R/Fc Chimera, CF …. The description is as above.
The target in assay [5] is T4, Recombinant Human DLL4 (R&D Systems Cat#1506-D4/CF) (human, UniProt Q9NR61 27-524).
T4 construct: Bought recombinant protein; also called delta-like protein 4; rHuman DLL4
The assay is described as above.

The target of assay [6] is T5, rHuman CD44/Fc Chimera, CF (R&D Systems Cat#3660-CD) (human, UniProt P16070 21-220).
T5 construct: Bought recombinant protein; Fc part of the bought chimera not given
Described as above.

The target in assay [7] is T6, rHuman ErbB2/Fc Chimera, CF (R&D Systems Cat#1129-ER) (human, UniProt P04626 23-652).
T6 construct: Bought recombinant protein; Fc part of the bought chimera not given
Described as above.

Assay [8] addresses T7, rHuman IGF-1 sR (insulin-like growth factor-1 soluble receptor), CF (R&D Systems Cat#391-GR) (human, UniProt P08069 31-932).
T7 construct: Bought recombinant soluble receptor
Described as above.

The target of assay [9] is T8, rHuman HGF R/c-MET/Fc Chimera, CF (R&D Systems Cat#358-MT/CF) (human, UniProt P08581 25-932).
T8 construct: Bought recombinant protein; also called HGF R/Fc; Fc part of the bought chimera not given
Described as above.

Assay [10] deals with T9, rHuman P-Cadherin/Fc Chimera, CF (R&D Systems Cat#861-PC) (human, UniProt P22223 108-654).
T9 construct: Bought recombinant protein; Fc part of the bought chimera not given
Described as above.

In assay [11] the target is T2, rHuman EGF R/Fc Chimera, CF (R&D …). As to the kind of experiment: ECL multispot (MSD), antigen spotted on plate, Fab at 0.50 (column head: Fab [µM]).
Assay [12] addresses T3, rHuman Notch-1/Fc Chimera, CF (R&D …). Described as above.
Assay [13] concerns the target T1, rHuman Erythropoietin R/Fc Chimera, CF …. The assay is described as above.
In assay [14] the target is T4, Recombinant Human DLL4 (R&D Systems …). The assay is described as above.
Assay [15] deals with T5, rHuman CD44/Fc Chimera, CF (R&D Systems …). Described as above.
For assay [16], the target named is T6, rHuman ErbB2/Fc Chimera, CF (R&D …). Described as above.
Assay [17] addresses T7, rHuman IGF-1 sR (insulin-like growth …). The assay is described as above.
The target of assay [18] is T8, rHuman HGF R/c-MET/Fc Chimera, CF (R&D …). The description is as above.
Assay [19] concerns the target T9, rHuman P-Cadherin/Fc Chimera, CF (R&D …). The assay is described as above.

T8 sequence (P08581 25-932, change not shown): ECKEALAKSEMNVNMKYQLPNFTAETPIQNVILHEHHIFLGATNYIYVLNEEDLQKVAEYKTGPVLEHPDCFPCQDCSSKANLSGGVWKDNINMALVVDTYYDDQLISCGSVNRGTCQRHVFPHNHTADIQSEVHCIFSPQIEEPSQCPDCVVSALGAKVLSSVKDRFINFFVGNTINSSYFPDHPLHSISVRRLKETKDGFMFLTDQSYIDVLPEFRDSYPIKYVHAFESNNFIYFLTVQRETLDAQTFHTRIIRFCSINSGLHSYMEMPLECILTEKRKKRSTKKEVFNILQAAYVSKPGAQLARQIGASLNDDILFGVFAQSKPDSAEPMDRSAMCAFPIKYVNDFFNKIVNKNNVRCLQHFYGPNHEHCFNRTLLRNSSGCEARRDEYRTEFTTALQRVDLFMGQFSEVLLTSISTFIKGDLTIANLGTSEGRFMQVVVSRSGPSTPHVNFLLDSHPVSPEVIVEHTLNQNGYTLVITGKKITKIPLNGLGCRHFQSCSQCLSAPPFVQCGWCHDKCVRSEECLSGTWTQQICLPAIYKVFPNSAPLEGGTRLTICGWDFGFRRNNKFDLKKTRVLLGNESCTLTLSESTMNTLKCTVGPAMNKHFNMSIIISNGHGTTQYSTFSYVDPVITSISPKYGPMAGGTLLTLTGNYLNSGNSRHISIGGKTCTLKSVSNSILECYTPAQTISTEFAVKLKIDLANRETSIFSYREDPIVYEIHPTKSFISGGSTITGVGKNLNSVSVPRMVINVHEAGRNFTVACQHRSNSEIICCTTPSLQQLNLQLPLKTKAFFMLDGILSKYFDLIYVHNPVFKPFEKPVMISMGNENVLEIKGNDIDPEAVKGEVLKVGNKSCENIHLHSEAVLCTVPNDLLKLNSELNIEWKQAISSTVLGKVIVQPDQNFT

B1: Fab VH1-46_IGHD6-6*01_IGHJ1*01 & L6_IGKJ1*01 (Fab, V domains shown)
VH: QVQLVQSGAEVKKPGASVKVSCKASGYTFTSYYMHWVRQAPGQGLEWMGIINPSGGSTSYAQKFQGRVTMTRDTSTSTVYMELSSLRSEDTAVYYCAREEYSSSSAEYFQHWGQGTLVTVSS
VL: not shown
notes: Tested as a Fab expressed in E. coli; The heavy chain came from Plasmid A (CH1 with His6 and Flag tags) and the kappa light chain from Plasmid C (kappa CL); also called Wt; wildtype
Consider B1, for which the “signal/noise ratio (ECL)” value came to 1.1 in assay [1]; 0.9 in assay [2]; 0.6 in [3]; 0.9 in [4]; 33.5 in assay [5]; 0.3 in assay [6]. The “signal/noise ratio (ECL)” value came to 0.6 in assay [7]; 0.5 in [8]; 0.6 in [9]; 0.7 in [10]; 1.4 in [11]; 2 in assay [12]. Moreover, the “signal/noise ratio (ECL)” value in assay [13] stood at 0.9; in assay [14], 2.9; in [15], 1; in assay [16], 1; in assay [17], 1.2; in assay [18] it was 0.6. The “signal/noise ratio (ECL)” value in assay [19] is 1.3.

B2: Fab VH1-46_IGHD6-6*01_IGHJ1*01 S102A/S103P/S104F (APF) & L6_IGKJ1*01 (Fab, V domains shown)
VH: QVQLVQSGAEVKKPGASVKVSCKASGYTFTSYYMHWVRQAPGQGLEWMGIINPSGGSTSYAQKFQGRVTMTRDTSTSTVYMELSSLRSEDTAVYYCAREEYAPFSAEYFQHWGQGTLVTVSS
VL: not shown
notes: Tested as a Fab expressed in E. coli; the constant parts (CH1 with His6/Flag tags, kappa CL) come from Plasmids A and C; also called APF triple mutant; H:APF & L:wt
On to B2, for which the “signal/noise ratio (ECL)” value in assay [1] is 1.8; in assay [2], 1; in assay [3] it was 1.1; in assay [4] it was 1.6; in assay [5], 274; in assay [6], 0.7. Besides, the “signal/noise ratio (ECL)” value in assay [7] was 0.7; in assay [8] it was 0.5; in [9], 0.7; in assay [10], 0.9; in assay [11], 1.1; in [12], 1.4. The “signal/noise ratio (ECL)” value in assay [13] is 0.9; in [14], 34.5; in assay [15] it was 1; in assay [16], 1; in [17], 1.3; in assay [18], 0.8. Also, the “signal/noise ratio (ECL)” value in assay [19] is 0.8.
